Reference: doi:10.1101/2021.03.17.435802

Key:
ACE2(HH:NN)-Fc (human) = ACE2(HH:NN)-Fc (human) (UniProt Q9BYF1); assay: SPR
[1] = biological target: ACE2(HH:NN)-Fc LALA-PG (human) (UniProt Q9BYF1); assay: SPR

SARS-CoV-2 S1 B.1.1.7 (from UniProt P0DTC2 14-680) (domain or fragment)
fold enhanced affinity (against S1 WT) (ACE2(HH:NN)-Fc (human)): 3 fold
fold enhanced affinity (against S1 WT) [1]: 3 fold
